{
  "source": "patent US20190241648A1",
  "about": "(STATEN BIOTECHNOLOGY B V, published 2019)",
  "binders": {"B1": {"name": "Llama antibody 5E5 (antibody, V domains shown)", "VH": "QLQLVESGGGLVQPGGSLRLSCAASGFTFGTYSMRWVRQVPRKALEWVSSISTDGGGTAYRDSVKGRFTISRDNAKNTLYLQMNNLKPEDTAIYYCVIAGYSDWGQGTQVTVSS", "VL": "ATMLTQSPGSLSVVPGESASISCKTSQGLVHSDGKTYFYWFLQKPGQSPQQLIYQVSNRASGVPDRFTGSGSGTDFTLKISGVKAEDAGVYYCAQGTYYPHTFGSGTRLEIK", "notes": "detected with goat anti-human IgG (Fc); also called mAb 5E5"}},
  "experiment_in_all_cases": "cyclic peptide substitution array",
  "key": {"[1]": {"biological_target": "T1, ApoC3 peptide F64C (human, cyclic (thioether))", "T1 peptide": "DKFSECWDLDPEV", "method_in_brief": "(§1)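 Peptide microarrays incubated with antibody samples, then stained with goat anti-human IgG (Fc) DyLight680 and anti-HA DyLight800 control antibodies, scanned at intensity 7/7 (red/green). Secondary-only pre-stain checked background binding; framing HA peptides served as quality control; substitution effects read as changes in spot intensity.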"}, "[2]": {"biological_target": "T2, ApoC3 peptide E63D (human, not fully specified; cyclic (thioether))", "T2 peptide": "DKFSDFWDLDPEV", "method_in_brief": "as §1"}, "[3]": {"biological_target": "T3, ApoC3 peptide E70D (human, cyclic (thioether))", "T3 peptide": "DKFSEFWDLDPDV", "method_in_brief": "as §1"}, "[4]": {"biological_target": "T4, ApoC3 peptide K60F (human, cyclic (thioether))", "T4 peptide": "DFFSEFWDLDPEV", "method_in_brief": "as §1"}, "[5]": {"biological_target": "T5, ApoC3 peptide P69H (human, not fully specified; cyclic (thioether))", "T5 peptide": "DKFSEFWDLDHEV", "method_in_brief": "as §1"}, "[6]": {"biological_target": "T6, ApoC3 peptide D68I (human, cyclic (thioether))", "T6 peptide": "DKFSEFWDLIPEV", "method_in_brief": "as §1"}, "[7]": {"biological_target": "T7, ApoC3 peptide V71I (human, thioether (positions not given here); also: cyclic (thioether), ring places not given here)", "T7 peptide": "DKFSEFWDLDPEI", "method_in_brief": "as §1"}, "[8]": {"biological_target": "T8, ApoC3 peptide D59K (human, thioether (positions not given here); not fully specified (C-terminus, bridges))", "T8 peptide": "KKFSEFWDLDPEV", "method_in_brief": "as §1"}, "[9]": {"biological_target": "T9, ApoC3 peptide F64K (human, thioether (positions not given here); not fully specified (bridges); also: cyclic (thioether), positions not given here)", "T9 peptide": "DKFSEKWDLDPEV", "method_in_brief": "as §1"}, "[10]": {"biological_target": "T10, ApoC3 peptide W65K (human, cyclic (thioether))", "T10 peptide": "DKFSEFKDLDPEV", "method_in_brief": "as §1"}, "[11]": {"biological_target": "T11, ApoC3 peptide P69K (human, not fully specified; cyclic (thioether))", "T11 peptide": "DKFSEFWDLDKEV", "method_in_brief": "as §1"}, "[12]": {"biological_target": "T12, ApoC3 peptide E70K (human, cyclic (thioether))", "T12 peptide": "DKFSEFWDLDPKV", "method_in_brief": "as §1"}, "[13]": {"biological_target": "T13, ApoC3 peptide V71K (human, thioether (positions not given here); also: cyclic (thioether), ring places not given here)", "T13 peptide": "DKFSEFWDLDPEK", "method_in_brief": "as §1"}, "[14]": {"biological_target": "T14, ApoC3 peptide D59L (human, thioether (positions not given here); not fully specified (C-terminus, bridges))", "T14 peptide": "LKFSEFWDLDPEV", "method_in_brief": "as §1"}, "[15]": {"biological_target": "T15, ApoC3 peptide W65L (human, cyclic (thioether))", "T15 peptide": "DKFSEFLDLDPEV", "method_in_brief": "as §1"}, "[16]": {"biological_target": "T16, ApoC3 peptide S62M (human, thioether (positions not given here); also: cyclic (thioether), ring places not given here)", "T16 peptide": "DKFMEFWDLDPEV", "method_in_brief": "as §1"}, "[17]": {"biological_target": "T17, ApoC3 peptide E70M (human, cyclic (thioether))", "T17 peptide": "DKFSEFWDLDPMV", "method_in_brief": "as §1"}, "[18]": {"biological_target": "T18, ApoC3 peptide D59N (human, thioether (positions not given here); not fully specified (C-terminus, bridges); also: cyclised via thioether between a C-terminal Cys and a modified N-terminus, the Cys and the N-terminal …)", "T18 peptide": "NKFSEFWDLDPEV", "method_in_brief": "as §1"}, "[19]": {"biological_target": "T19, ApoC3 peptide P69N (human, not fully specified; cyclic (thioether))", "T19 peptide": "DKFSEFWDLDNEV", "method_in_brief": "as §1"}, "[20]": {"biological_target": "T20, ApoC3 peptide E70N (human, cyclic (thioether))", "T20 peptide": "DKFSEFWDLDPNV", "method_in_brief": "as §1"}, "[21]": {"biological_target": "T21, ApoC3 peptide L67P (human, thioether (positions not given here); not fully specified (bridges); also: thioether between a C-terminal Cys side chain and a modified N-terminus, the Cys is not in the chain)", "T21 peptide": "DKFSEFWDPDPEV", "method_in_brief": "as §1"}, "[22]": {"biological_target": "T22, ApoC3 peptide D59R (human, thioether (positions not given here); not fully specified (C-terminus, bridges); also: cyclised via thioether between a C-terminal Cys and a modified N-terminus, the Cys and the N-terminal …)", "T22 peptide": "RKFSEFWDLDPEV", "method_in_brief": "as §1"}, "[23]": {"biological_target": "T23, ApoC3 peptide D66R (human, not fully specified; cyclic (thioether))", "T23 peptide": "DKFSEFWRLDPEV", "method_in_brief": "as §1"}, "[24]": {"biological_target": "T24, ApoC3 peptide L67R (human, thioether (positions not given here); not fully specified (bridges); also: thioether between a C-terminal Cys side chain and a modified N-terminus, the Cys is not in the chain)", "T24 peptide": "DKFSEFWDRDPEV", "method_in_brief": "as §1"}, "[25]": {"biological_target": "T25, ApoC3 peptide K60S (human, cyclic (thioether))", "T25 peptide": "DSFSEFWDLDPEV", "method_in_brief": "as §1"}, "[26]": {"biological_target": "T26, ApoC3 peptide F61S (human, cyclic (thioether))", "T26 peptide": "DKSSEFWDLDPEV", "method_in_brief": "as §1"}, "[27]": {"biological_target": "T27, ApoC3 peptide E63T (human, cyclic (thioether))", "T27 peptide": "DKFSTFWDLDPEV", "method_in_brief": "as §1"}, "[28]": {"biological_target": "T28, ApoC3 peptide F61V (human, cyclic (thioether))", "T28 peptide": "DKVSEFWDLDPEV", "method_in_brief": "as §1"}, "[29]": {"biological_target": "T29, ApoC3 peptide S62W (human, thioether (positions not given here); also: cyclic (thioether), ring places not given here)", "T29 peptide": "DKFWEFWDLDPEV", "method_in_brief": "as §1"}, "[30]": {"biological_target": "T30, ApoC3 peptide E63A (human, not fully specified; cyclic (thioether))", "T30 peptide": "DKFSAFWDLDPEV", "method_in_brief": "as §1"}},
  "note": "Ends that are not written are not given here.",
  "data": [
    {"binder": "B1", "values": [
      {"measurement": "% of binding to wild-type peptide", "setting": "[1]", "value": 51, "unit": "%"},
      {"measurement": "% of binding to wild-type peptide", "setting": "[2]", "value": 29.9, "unit": "%"},
      {"measurement": "% of binding to wild-type peptide", "setting": "[3]", "value": 82.9, "unit": "%"},
      {"measurement": "% of binding to wild-type peptide", "setting": "[4]", "value": 53.2, "unit": "%"},
      {"measurement": "% of binding to wild-type peptide", "setting": "[5]", "value": 10.7, "unit": "%"},
      {"measurement": "% of binding to wild-type peptide", "setting": "[6]", "value": 0, "unit": "%"},
      {"measurement": "% of binding to wild-type peptide", "setting": "[7]", "value": 66, "unit": "%"},
      {"measurement": "% of binding to wild-type peptide", "setting": "[8]", "value": 30.6, "unit": "%"},
      {"measurement": "% of binding to wild-type peptide", "setting": "[9]", "value": 114, "unit": "%"},
      {"measurement": "% of binding to wild-type peptide", "setting": "[10]", "value": 0, "unit": "%"},
      {"measurement": "% of binding to wild-type peptide", "setting": "[11]", "value": 20.7, "unit": "%"},
      {"measurement": "% of binding to wild-type peptide", "setting": "[12]", "value": 60.1, "unit": "%"},
      {"measurement": "% of binding to wild-type peptide", "setting": "[13]", "value": 91.1, "unit": "%"},
      {"measurement": "% of binding to wild-type peptide", "setting": "[14]", "value": 33.6, "unit": "%"},
      {"measurement": "% of binding to wild-type peptide", "setting": "[15]", "value": 0, "unit": "%"},
      {"measurement": "% of binding to wild-type peptide", "setting": "[16]", "value": 0, "unit": "%"},
      {"measurement": "% of binding to wild-type peptide", "setting": "[17]", "value": 74, "unit": "%"},
      {"measurement": "% of binding to wild-type peptide", "setting": "[18]", "value": 52.5, "unit": "%"},
      {"measurement": "% of binding to wild-type peptide", "setting": "[19]", "value": 19.4, "unit": "%"},
      {"measurement": "% of binding to wild-type peptide", "setting": "[20]", "value": 49.6, "unit": "%"},
      {"measurement": "% of binding to wild-type peptide", "setting": "[21]", "value": 25.5, "unit": "%"},
      {"measurement": "% of binding to wild-type peptide", "setting": "[22]", "value": 43.3, "unit": "%"},
      {"measurement": "% of binding to wild-type peptide", "setting": "[23]", "value": 0.17, "unit": "%"},
      {"measurement": "% of binding to wild-type peptide", "setting": "[24]", "value": 15.4, "unit": "%"},
      {"measurement": "% of binding to wild-type peptide", "setting": "[25]", "value": 174, "unit": "%"},
      {"measurement": "% of binding to wild-type peptide", "setting": "[26]", "value": 22.6, "unit": "%"},
      {"measurement": "% of binding to wild-type peptide", "setting": "[27]", "value": 0, "unit": "%"},
      {"measurement": "% of binding to wild-type peptide", "setting": "[28]", "value": 20.2, "unit": "%"},
      {"measurement": "% of binding to wild-type peptide", "setting": "[29]", "value": 0, "unit": "%"},
      {"measurement": "% of binding to wild-type peptide", "setting": "[30]", "value": 90.1, "unit": "%"}
    ]}
  ]
}
